# Biological target: the molecule itself
# Test: SDS-PAGE
protein,measurement,value
"radixin (natural protein, UniProt P26043 1-583, looked up) MPKPINVRVTTMDAELEFAIQPNTTGKQLFDQVVKTVGLREVWFFGLQYVDSKGYSTWLKLNKKVTQQDVKKENPLQFKFRAKFFPEDVSEELIQEITQRLFFLQVKEAILNDEIYCPPETAVLLASYAVQAKYGDYNKEIHKPGYLANDRLLPQRVLEQHKLTKEQWEERIQNWHEEHRGMLREDSMMEYLKIAQDLEMYGVNYFEIKNKKGTELWLGVDALGLNIYEHDDKLTPKIGFPWSEIRNISFNDKKFVIKPIDKKAPDFVFYAPRLRINKRILALCMGNHELYMRRRKPDTIEVQQMKAQAREEKHQKQLERAQLENEKKKREIAEKEKERIEREKEELMERLRQIEEQTVKAQKELEEQTRKALELEQERQRAKEEAERLDRERRAAEEAKSAIAKQAADQMKNQEQLAAELAEFTAKIALLEEAKKKKEEEATEWQHKAFAAQEDLEKTKEELKTVMSAPPPPPPPPVIPPTENEHDEQDENSAEASAELSSEGVMNHRSEEERVTETQKNERVKKQLQALSSELAQARDETKKTQNDVLHAENVKAGRDKYKTLRQIRQGNTKQRIDEFEAM",stoichiometry N,2
